Data from US20090041767A1, “PHARMACEUTICAL COMBINATIONS” (priority 2007, published 2009).

Biological target: mouse α5β1 (Mus musculus, UniProt P09055+P11688)
Test: antibody binding to mouse α5β1 integrin

Chain of mouse α5β1 (P11688 45-1053): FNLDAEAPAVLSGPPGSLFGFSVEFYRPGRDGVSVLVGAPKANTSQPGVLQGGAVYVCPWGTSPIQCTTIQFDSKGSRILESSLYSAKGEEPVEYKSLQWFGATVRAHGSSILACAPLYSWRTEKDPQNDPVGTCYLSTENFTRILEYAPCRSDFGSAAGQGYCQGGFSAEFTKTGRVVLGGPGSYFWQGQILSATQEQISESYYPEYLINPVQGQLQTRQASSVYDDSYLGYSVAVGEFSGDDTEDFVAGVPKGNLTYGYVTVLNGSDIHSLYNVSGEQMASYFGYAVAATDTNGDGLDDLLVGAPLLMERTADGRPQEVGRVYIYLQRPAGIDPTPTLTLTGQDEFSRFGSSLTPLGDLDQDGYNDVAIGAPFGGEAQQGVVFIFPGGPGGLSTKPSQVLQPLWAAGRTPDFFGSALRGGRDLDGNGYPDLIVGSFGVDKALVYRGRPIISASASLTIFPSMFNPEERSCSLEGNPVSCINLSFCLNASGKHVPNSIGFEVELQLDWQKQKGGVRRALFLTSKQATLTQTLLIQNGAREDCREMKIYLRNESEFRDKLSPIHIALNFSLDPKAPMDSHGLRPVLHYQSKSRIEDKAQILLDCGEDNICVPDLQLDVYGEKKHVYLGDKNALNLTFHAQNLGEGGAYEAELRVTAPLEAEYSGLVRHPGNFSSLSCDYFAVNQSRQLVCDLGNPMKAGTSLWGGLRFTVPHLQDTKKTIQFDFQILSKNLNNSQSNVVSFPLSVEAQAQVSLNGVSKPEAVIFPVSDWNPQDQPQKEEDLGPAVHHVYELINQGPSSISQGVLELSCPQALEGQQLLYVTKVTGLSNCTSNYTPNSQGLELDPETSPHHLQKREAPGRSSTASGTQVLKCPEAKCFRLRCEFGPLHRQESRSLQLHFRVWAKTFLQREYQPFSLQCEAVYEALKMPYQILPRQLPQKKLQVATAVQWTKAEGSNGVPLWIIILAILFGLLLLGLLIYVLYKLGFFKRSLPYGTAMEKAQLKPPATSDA
Chain of mouse α5β1 (P09055 21-798): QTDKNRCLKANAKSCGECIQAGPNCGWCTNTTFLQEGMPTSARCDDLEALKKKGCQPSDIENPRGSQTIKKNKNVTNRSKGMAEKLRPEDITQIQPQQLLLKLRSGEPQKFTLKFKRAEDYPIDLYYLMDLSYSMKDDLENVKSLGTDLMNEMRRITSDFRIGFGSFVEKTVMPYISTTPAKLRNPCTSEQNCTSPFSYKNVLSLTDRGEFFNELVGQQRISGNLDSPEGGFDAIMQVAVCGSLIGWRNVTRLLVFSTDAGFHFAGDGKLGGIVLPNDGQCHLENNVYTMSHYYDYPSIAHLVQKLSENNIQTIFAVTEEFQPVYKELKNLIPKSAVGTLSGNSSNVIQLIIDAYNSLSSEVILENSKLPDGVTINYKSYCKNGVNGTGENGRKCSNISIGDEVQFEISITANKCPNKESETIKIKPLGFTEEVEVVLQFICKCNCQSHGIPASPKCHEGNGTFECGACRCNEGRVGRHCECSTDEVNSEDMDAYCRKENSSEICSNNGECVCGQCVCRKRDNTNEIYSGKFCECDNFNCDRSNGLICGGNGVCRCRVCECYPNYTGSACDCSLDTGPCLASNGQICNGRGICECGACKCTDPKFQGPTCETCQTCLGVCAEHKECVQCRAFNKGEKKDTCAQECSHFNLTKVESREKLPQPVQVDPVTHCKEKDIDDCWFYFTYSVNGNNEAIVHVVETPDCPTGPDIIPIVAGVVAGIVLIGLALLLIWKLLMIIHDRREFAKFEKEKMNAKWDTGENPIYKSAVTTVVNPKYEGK

- binding to mouse α5β1: binds mouse α5β1 with high affinity
B1: 339.1: monoclonal antibody that targets murine α5β1; volociximab surrogate; VH SEQ ID NO: 22, VL SEQ ID NO: 23 (antibody, V domains shown)
VH: MDIRLSLAFLVLFIKGVQCEVYLVESGGGSVQPGRSTKLSCAASEFTFSTSSMAWVRQAPTKGLEWVATISSSGEYTYYRDSVKGRFTISRDNAKSTLYLQMNSLRSEDTATYYCTRGVLYWGQGVMVTVSS
VL: MAPVQLLGLLLLCLPAMRCDIQMTQSPSLLSASVGDRVTLNCKSSQNIYKNLNWYQQKLGEPPKLLIHYTDNLQAGIPSRFSGSGSGTDYTLTISSLHPDDVATYFCFQYNRGPTFGAGTKLELK
modifications: heavy chain variable region for mouse volociximab analog; light chain variable region for mouse volociximab analog
